± gives the standard error. For part of these data: This sample holds only a part of the variants without activity.
B1: glmS ribozyme (parent)
chain: AUAAAAGCGCCAGAACUACAGAAAUGUAGUUGACGAGGAGGAGGUUUAUCGAAUUUUCGGCGGAUGCCUCCAAA

Assays:
Details in all cases: with glucosamine-6-phosphate
glucosamine-6-phosphate [1] = variants of: B1; experiment: kcat; higher = faster cleavage; RNA array
In short: (§1)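 Sequenced MiSeq chips were the platform: E. coli RNA polymerase transcribed barcoded ribozyme variants on them in situ, and a hybridised Cy3 probe tracked these at 37 °C. After glucosamine-6-phosphate (40 μM to 10 mM) in HEPES/KCl/Mg(OAc)2 buffer was flowed in, tiles were imaged over ~14 h. Signals normalised to baseline and to non-cleaving reference variants were reduced to per-tile medians and fit to one- or two-exponential decays to obtain kobs. kcat and KM were derived through weighted Michaelis–Menten fits across concentrations.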

glucosamine-6-phosphate [2] = variants of: B1; experiment: KM; higher = weaker cofactor use; RNA array
In short: as §1

glucosamine-6-phosphate [3] = variants of: B1; experiment: self-cleavage kobs at 10000 uM GlcN6P; higher = faster cleavage; RNA array
In short: as §1

glucosamine-6-phosphate [4] = variants of: B1; experiment: self-cleavage kobs at 40 uM GlcN6P; higher = faster cleavage; RNA array
In short: as §1

glucosamine-6-phosphate [5] = variants of: B1; experiment: self-cleavage kobs at 160 uM GlcN6P; higher = faster cleavage; RNA array
In short: as §1

glucosamine-6-phosphate [6] = variants of: B1; experiment: self-cleavage kobs at 640 uM GlcN6P; higher = faster cleavage; RNA array
In short: as §1

glucosamine-6-phosphate [7] = variants of: B1; experiment: self-cleavage kobs at 2500 uM GlcN6P; higher = faster cleavage; RNA array
In short: as §1

Row | Variant | kcat (glucosamine-6-phosphate [1]) [s⁻¹] | KM (glucosamine-6-phosphate [2]) [µM] | self-cleavage kobs at 10000 uM GlcN6P (glucosamine-6-phosphate [3]) [s⁻¹] | self-cleavage kobs at 40 uM GlcN6P (glucosamine-6-phosphate [4]) [s⁻¹] | self-cleavage kobs at 160 uM GlcN6P (glucosamine-6-phosphate [5]) [s⁻¹] | self-cleavage kobs at 640 uM GlcN6P (glucosamine-6-phosphate [6]) [s⁻¹] | self-cleavage kobs at 2500 uM GlcN6P (glucosamine-6-phosphate [7]) [s⁻¹]
1 | G29A U57A | 4e-05 ± 1.6e-06 | 877 ± 180 | 3.64e-05 ± 1.7e-05 | – | – | – | –
2 | A15U U45A | 0.0179 ± 0.0054 | 3230 ± 1300 | 0.0145 ± 0.0023 | 0.000298 ± 4.7e-05 | 0.000772 ± 0.00017 | 0.00219 ± 0.00059 | 0.00648 ± 0.0023
3 | G37A G38C C67U C68G C71U | 2.2e-05 ± 4e-06 | – | – | – | – | – | –
4 | G37A A48C | 1.56e-05 ± 6e-07 | 1270 ± 290 | – | – | < 1e-05 | – | –
5 | G43A A53G | 8.84e-05 ± 2.5e-05 | – | 7.56e-05 ± 8.5e-06 | – | – | – | 0.000132 ± 2.8e-05
6 | A52G U54G | 0.00117 ± 0.00021 | 3060 ± 840 | 0.000855 ± 0.00012 | – | 6.71e-05 ± 1.6e-05 | 0.000183 ± 2.3e-05 | 0.000616 ± 8.2e-05
7 | A12G G32U | 0.00313 ± 0.00012 | – | 0.00144 ± 0.00014 | – | 4.1e-05 ± 8.1e-06 | 0.000164 ± 1.8e-05 | 0.00055 ± 5.4e-05
8 | A42U C67U | 0.000151 ± 1.3e-05 | 1090 ± 300 | 0.000131 ± 8.5e-06 | – | – | 5.2e-05 ± 6.3e-06 | 0.000127 ± 1.2e-05
9 | A33G C71A | < 1e-05 | – | < 1e-05 | < 1e-05 | < 1e-05 | – | –
10 | U46A U47C | 0.00192 ± 0.00044 | 2240 ± 840 | 0.00157 ± 0.00019 | 5.61e-05 ± 1.2e-05 | 0.000141 ± 2.8e-05 | 0.00034 ± 5.6e-05 | 0.00121 ± 0.00021
11 | G37A U49G | 7.59e-05 ± 1.4e-05 | – | 6.04e-05 ± 1.3e-05 | – | – | – | 4.94e-05 ± 1.8e-05
12 | G37U U57C | < 1e-05 | – | < 1e-05 | – | – | – | < 1e-05
13 | G40U C58A | 0.000609 ± 4.4e-05 | – | 3.81e-05 ± 9.5e-06 | < 1e-05 | < 1e-05 | – | –
14 | A53C U54A | 0.00804 ± 0.0035 | – | 0.00747 ± 0.00098 | 0.000184 ± 2.3e-05 | 0.000353 ± 9.2e-05 | 0.00128 ± 0.00018 | 0.00277 ± 0.00065
15 | G43A U45G C58G | 2.82e-05 ± 8e-07 | 199 ± 61 | – | – | – | – | –
16 | A48C C68G | < 1e-05 | – | < 1e-05 | < 1e-05 | – | – | –
17 | G43U C68U | 0.00467 ± 0.00089 | 1190 ± 320 | 0.00404 ± 0.0004 | 0.000181 ± 1.5e-05 | 0.000436 ± 4.8e-05 | 0.00188 ± 0.00022 | 0.00344 ± 0.00047

Row | Variant | kcat (glucosamine-6-phosphate [1]) [s⁻¹] | KM (glucosamine-6-phosphate [2]) [µM] | self-cleavage kobs at 10000 uM GlcN6P (glucosamine-6-phosphate [3]) [s⁻¹] | self-cleavage kobs at 40 uM GlcN6P (glucosamine-6-phosphate [4]) [s⁻¹] | self-cleavage kobs at 160 uM GlcN6P (glucosamine-6-phosphate [5]) [s⁻¹] | self-cleavage kobs at 640 uM GlcN6P (glucosamine-6-phosphate [6]) [s⁻¹] | self-cleavage kobs at 2500 uM GlcN6P (glucosamine-6-phosphate [7]) [s⁻¹]
18 | G40A G59U | 1.46e-05 ± 2.7e-06 | – | – | < 1e-05 | < 1e-05 | – | –
19 | G40U U56C | 1.13e-05 ± 5.2e-06 | – | – | < 1e-05 | – | – | –
20 | G44A U45G | 0.00378 ± 0.00039 | 1850 ± 280 | 0.0033 ± 0.0007 | 9.22e-05 ± 1.8e-05 | 0.000285 ± 6.4e-05 | 0.000889 ± 0.00016 | 0.00218 ± 0.00031
21 | U47A U56G | 0.0204 ± 0.0071 | 3000 ± 1300 | 0.0194 ± 0.0038 | 0.000264 ± 4.1e-05 | 0.000981 ± 0.00018 | 0.00418 ± 0.00053 | 0.0064 ± 0.0017
22 | U30G G41U | 0.000172 ± 2.3e-05 | 440 ± 190 | 0.000154 ± 2.4e-05 | – | 3.73e-05 ± 1.4e-05 | 0.000153 ± 3.3e-05 | 0.000149 ± 2.6e-05
23 | A12U A33C | 0.00204 ± 0.00049 | 7810 ± 2600 | 0.00113 ± 0.00019 | – | 2.87e-05 ± 1.3e-05 | 0.000178 ± 3.4e-05 | 0.000501 ± 9.3e-05
24 | A36C C71G | 1.27e-05 ± 2.5e-06 | – | – | – | – | – | –
25 | G40A U54C | 0.00522 ± 0.00053 | 908 ± 140 | 0.00467 ± 0.0012 | 0.000248 ± 5.6e-05 | 0.000724 ± 0.00016 | 0.00211 ± 0.0003 | 0.00449 ± 0.0013
26 | A39C A52G | 0.000297 ± 5.1e-05 | 2850 ± 940 | 0.000217 ± 2.6e-05 | – | – | 4.74e-05 ± 8.3e-06 | 0.00017 ± 2.1e-05
27 | A14U C50U C67G | 3.51e-05 ± 1.5e-05 | – | – | – | – | – | –
28 | C10U G35A | 1.32e-05 ± 1.8e-06 | – | < 1e-05 | – | – | – | –
29 | A15U G51C | < 1e-05 | – | – | < 1e-05 | – | < 1e-05 | –
30 | A15G U69G | 7.83e-05 ± 1.2e-05 | – | 7.05e-05 ± 9.2e-06 | 3.29e-05 ± 1.2e-05 | 5.34e-05 ± 2.7e-05 | 6.2e-05 ± 1.2e-05 | 0.00012 ± 1.7e-05
31 | G9U C61G | 0.000192 ± 1.7e-05 | 2350 ± 460 | 0.00016 ± 2.5e-05 | < 1e-05 | – | 4.57e-05 ± 1.2e-05 | 9.21e-05 ± 1.7e-05
32 | G41A U54C | 0.000448 ± 5.8e-05 | 1810 ± 510 | 0.0004 ± 5.8e-05 | – | – | 0.00013 ± 2.5e-05 | 0.000223 ± 4.7e-05
33 | G32C A48U | < 1e-05 | – | – | < 1e-05 | – | – | –
34 | A14U U54G | 0.00917 ± 0.0032 | – | 0.00759 ± 0.00076 | 0.000217 ± 2.4e-05 | 0.000382 ± 6.2e-05 | 0.00128 ± 0.00026 | 0.00387 ± 0.00047

From the supplement of paper PMC7125110
